The values that follow are results of earlier work, collected in paper PMC8438204, “Unraveling the Thermodynamics of Ultra-tight Binding of Intrinsically Disordered Proteins” (Frontiers in Molecular Biosciences, 2021).

The subject of data set [1] is CcdB2. Conditions: ref Drobnak et al., 2013. The protocol: Supplement DataSheet1.docx, table 1: Table S1. Thermodynamic parameters and structural properties of the complexes. All parameters are reported at T = 25°C. | column: Thermodynamic parameters || Nonetheless, a handful of examples of IDP binders with ultra-high affinity have been characterized to date. […] Complexes are ordered according to the degree of energy optimization as estimated by the ΔH bind/ASAint values. For the HigA2_3-23-HigB2 complex the degree of energy optimization is similar to one observed for the pairs of globular high affinity binders (Supplementary Table S1, Figure 3A). […] The high affinit ...

The test system of data set [2] is barnase-barstar. The note with it: ref Frisch et al., 1997. The method, then: Supplement DataSheet1.docx, table 1: Table S1. Thermodynamic parameters and structural properties of the complexes. All parameters are reported at T = 25°C. | column: Thermodynamic parameters || Next, we examine how the binding energetics of HigA2_3-23-HigB2 compares to other ultra-high affinity complexes formed by globular proteins. These include well-known examples such as the barnase-barstar and the complexes between various immunity proteins and colicin-DNases ([Hartley, 1989]; [Keeble et al., 2006]). The overall Gibbs free energies of globular high affinity complexes (ΔG assoc about −19 kcal/mol) are approximately 3 kcal/mol more negative compared to HigA2_3–23-HigB2. Since no significant conformational changes occur upon formation of globular high affinity complexes in any of th ... || Nonetheless, a handful of examples of IDP binders with ultra-high affinity have been characterized to date.

Data set [3] has as its system E7-Im7 (colicin DNase - immunity protein). The note with it: ref Keeble et al., 2006. The protocol: Supplement DataSheet1.docx, table 1: Table S1. Thermodynamic parameters and structural properties of the complexes. All parameters are reported at T = 25°C. | column: Thermodynamic parameters

B1: CcdA (protein, UniProt P62552 1-72, looked up)
Antitoxin CcdA: MKQRITVTVDSDSYQLLKAYDVNISGLVSTTMQNEARRLRAERWKAENQEGMAEVARFIEMNGSFADENRDW
By Kd is commonly meant the equilibrium constant for the complex coming apart. Turning to B1, the “ΔG (association)” value in data set [1] (25°C) was -15.6 kcal/mol. In addition, in data set [1], the Kd was 4 pM.

B2: barnase-barstar (protein, UniProt P00648 48-157; P11540 2-90, looked up)
Ribonuclease: AQVINTFDGVADYLQTYHKLPDNYITKSEAQALGWVASKGNLADVAPGKSIGGDIFSNREGKLPGKSGRTWREADINYTSGFRNSDRILYSSDWLIYKTTDHYQTFTKIR
Barstar: KKAVINGEQIRSISDLHQTLKKELALPEYYGENLDALWDCLTGWVEYPLVLEWRQFEQSKQLTENGAESVLQVFREAKAEGCDITIILS
As for B2, in data set [2] (25°C), the “-TΔS” value is -0.1 kcal/mol and the ΔG was -19 kcal/mol. Further, the ΔCp in data set [2] is recorded as -0.36 ± 0.02 kcal mol^-1 K^-1.

B3: E7-Im7 (protein, UniProt Q47112 1-576; Q03708 1-87, looked up)
Colicin-E7: MSGGDGRGHNSGAHNTGGNINGGPTGLGGNGGASDGSGWSSENNPWGGGSGSGVHWGGGSGHGNGGGNSNSGGGSNSSVAAPMAFGFPALAAPGAGTLGISVSGEALSAAIADIFAALKGPFKFSAWGIALYGILPSEIAKDDPNMMSKIVTSLPAETVTNVQVSTLPLDQATVSVTKRVTDVVKDTRQHIAVVAGVPMSVPVVNAKPTRTPGVFHASFPGVPSLTVSTVKGLPVSTTLPRGITEDKGRTAVPAGFTFGGGSHEAVIRFPKESGQKPVYVSVTDVLTPAQVKQRQDEEKRLQQEWNDAHPVEVAERNYEQARAELNQANKDVARNQERQAKAVQVYNSRKSELDAANKTLADAKAEIKQFERFAREPMAAGHRMWQMAGLKAQRAQTDVNNKKAAFDAAAKEKSDADVALSSALERRKQKENKEKDAKAKLDKESKRNKPGKATGKGKPVNNKWLNNAGKDLGSPVPDRIANKLRDKEFKSFDDFRKKFWEEVSKDPELSKQFSRNNNDRMKVGKAPKTRTQDVSGKRTSFELHHEKPISQNGGVYDMDNISVVTPKRHIDIHRGK
Colicin-E7 immunity protein: MELKNSISDYTEAEFVQLLKEIEKENVAATDDVLDVLLEHFVKITEHPDGTDLIYYPSDNRDDSPEGIVKEIKEWRAANGKPGFKQG
For B3, in data set [3] (25°C), the “-TΔS” value was 10.5 kcal/mol, the ΔG was -19.8 kcal/mol and the ΔH is -30.3 ± 0.8 kcal/mol. For the same molecule, the ΔCp in data set [3] is on record as -0.69 kcal mol^-1 K^-1.
